Data: the supplement of paper PMC5998384

How the values were obtained:
[1] = tested on: HeLa Kyoto; experiment: solubility change mitosis vs G1/S (difference of NP-40 vs SDS log2 ratios) (log2 ratio difference); higher = more soluble in mitosis
[2] = tested on: HeLa Kyoto; experiment: solubility in G1/S (NP-40 vs SDS abundance) (log2 ratio); higher = more soluble; conditions: cell cycle stage: G1/S
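For solubility change mitosis vs G1/S (difference of NP-40 vs SDS log2 ratios) in this document: synchronized HeLa Kyoto cells (double thymidine block for G1/S, nocodazole release for mitosis), protein amounts in NP-40 versus SDS lysates quantified by mass spectrometry, three biological replicates.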
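For solubility in G1/S (NP-40 vs SDS abundance) in this document: HeLa Kyoto cells arrested at G1/S by double thymidine block, proteins quantified by TMT10plex mass spectrometry in mild NP-40 versus SDS extracts, three biological replicates.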

Sequence	solubility change mitosis (log2) [1]	solubility in G1/S (log2) [2]
MERKRWECPALPQGWEREEVPRRSGLSAGHRDVFYYSPSGKKFRSKPQLARYLGGSMDLSTFDFRTGKMLMSKMNKSRQRVRYDSSNQVKGKPDLNTALPVRQTASIFKQPVTKITNHPSNKVKSDPQKAVDQPRQLFWEKKLSGLNAFDIAEELVKTMDLPKGLQGVGPGCTDETLLSAIASALHTSTMPITGQLSAAVEKNPGVWLNTTQPLCKAFMVTDEDIRKQEELVQQVRKRLEEALMADMLAHVEELARDGEAPLDKACAEDDDEEDEEEEEEEPDPDPEMEHV [MBD3]	0.629	0.334
MAELNTHVNVKEKIYAVRSVVPNKSNNEIVLVLQQFDFNVDKAVQAFVDGSAIQVLKEWNMTGKKKNNKRKRSKSKQHQGNKDAKDKVERPEAGPLQPQPPQIQNGPMNGCEKDSSSTDSANEKPALIPREKKISILEEPSKALRGVTEGNRLLQQKLSLDGNPKPIHGTTERSDGLQWSAEQPCNPSKPKAKTSPVKSNTPAAHLEIKPDELAKKRGPNIEKSVKDLQRCTVSLTRYRVMIKEEVDSSVKKIKAAFAELHNCIIDKEVSLMAEMDKVKEEAMEILTARQKKAEELKRLTDLASQMAEMQLAELRAEIKHFVSERKYDEELGKAARFSCDIEQLKAQIMLCGEITHPKNNYSSRTPCSSLLPLLNAHAATSGKQSNFSRKSSTHNKPSEGKAANPKMVSSLPSTADPSHQTMPANKQNGSSNQRRRFNPQYHNNRLNGPAKSQGSGNEAEPLGKGNSRHEHRRQPHNGFRPKNKGGAKNQEASLGMKTPEAPAHSEKPRRRQHAADTSEARPFRGSVGRVSQCNLCPTRIEVSTDAAVLSVPAVTLVA [SPATS2L]	1.14	-1.29
MPLRDKYCQTDHHHHGCCEPVYILEPGDPPLLQQPLQTSKSGIQQIIECFRSGTKQLKHILLKDVDTIFECKLCRSLFRGLPNLITHKKFYCPPSLQMDDNLPDVNDKQSQAINDLLEAIYPSVDKREYIIKLEPIETNQNAVFQYISRTDNPIEVTESSSTPEQTEVQIQETSTEQSKTVPVTDTEVETVEPPPVEIVTDEVAPTSDEQPQESQADLETSDNSDFGHQLICCLCRKEFNSRRGVRRHIRKVHKKKMEELKKYIETRKNPNQSSKGRSKNVLVPLSRSCPVCCKSFATKANVRRHFDEVHRGLRRDSITPDIATKPGQPLFLDSISPKKSFKTRKQKSSSKAEYNLTACKCLLCKRKYSSQIMLKRHMQIVHKITLSGTNSKREKGPNNTANSSEIKVKVEPADSVESSPPSITHSPQNELKGTNHSNEKKNTPAAQKNKVKQDSESPKSTSPSAAGGQQKTRKPKLSAGFDFKQLYCKLCKRQFTSKQNLTKHIELHTDGNNIYVKFYKCPLCTYETRRKRDVIRHITVVHKKSSRYLGKITASLEIRAIKKPIDFVLNKVAKRGPSRDEAKHSDSKHDGTSNSPSKKYEVADVGIEVKVTKNFSLHRCNKCGKAFAKKTYLEHHKKTHKANASNSPEGNKTKGRSTRSKALV [ZNF800]	1.43	-3.34
MMQGNTCHRMSFHPGRGCPRGRGGHGARPSAPSFRPQNLRLLHPQQPPVQYQYEPPSAPSTTFSNSPAPNFLPPRPDFVPFPPPMPPSAQGPLPPCPIRPPFPNHQMRHPFPVPPCFPPMPPPMPCPNNPPVPGAPPGQGTFPFMMPPPSMPHPPPPPVMPQQVNYQYPPGYSHHNFPPPSFNSFQNNPSSFLPSANNSSSPHFRHLPPYPLPKAPSERRSPERLKHYDDHRHRDHSHGRGERHRSLDRRERGRSPDRRRQDSRYRSDYDRGRTPSRHRSYERSRERERERHRHRDNRRSPSLERSYKKEYKRSGRSYGLSVVPEPAGCTPELPGEIIKNTDSWAPPLEIVNHRSPSREKKRARWEEEKDRWSDNQSSGKDKNYTSIKEKEPEETMPDKNEEEEEELLKPVWIRCTHSENYYSSDPMDQVGDSTVVGTSRLRDLYDKFEEELGSRQEKAKAARPPWEPPKTKLDEDLESSSESECESDEDSTCSSSSDSEVFDVIAEIKRKKAHPDRLHDELWYNDPGQMNDGPLCKCSAKARRTGIRHSIYPGEEAIKPCRPMTNNAGRLFHYRITVSPPTNFLTDRPTVIEYDDHEYIFEGFSMFAHAPLTNIPLCKVIRFNIDYTIHFIEEMMPENFCVKGLELFSLFLFRDILELYDWNLKGPLFEDSPPCCPRFHFMPRFVRFLPDGGKEVLSMHQILLYLLRCSKALVPEEEIANMLQWEELEWQKYAEECKGMIVTNPGTKPSSVRIDQLDREQFNPDVITFPIIVHFGIRPAQLSYAGDPQYQKLWKSYVKLRHLLANSPKVKQTDKQKLAQREEALQKIRQKNTMRREVTVELSSQGFWKTGIRSDVCQHAMMLPVLTHHIRYHQCLMHLDKLIGYTFQDRCLLQLAMTHPSHHLNFGMNPDHARNSLSNCGIRQPKYGDRKVHHMHMRKKGINTLINIMSRLGQDDPTPSRINHNERLEFLGDAVVEFLTSVHLYYLFPSLEEGGLATYRTAIVQNQHLAMLAKKLELDRFMLYAHGPDLCRESDLRHAMANCFEALIGAVYLEGSLEEAKQLFGRLLFNDPDLREVWLNYPLHPLQLQEPNTDRQLIETSPVLQKLTEFEEAIGVIFTHVRLLARAFTLRTVGFNHLTLGHNQRMEFLGDSIMQLVATEYLFIHFPDHHEGHLTLLRSSLVNNRTQAKVAEELGMQEYAITNDKTKRPVALRTKTLADLLESFIAALYIDKDLEYVHTFMNVCFFPRLKEFILNQDWNDPKSQLQQCCLTLRTEGKEPDIPLYKTLQTVGPSHARTYTVAVYFKGERIGCGKGPSIQQAEMGAAMDALEKYNFPQMAHQKRFIERKYRQELKEMRWEREHQEREPDETEDIKK [DROSHA]	0.203	-0.744
MSVTEEDLCHHMKVVVRVRPENTKEKAAGFHKVVHVVDKHILVFDPKQEEVSFFHGKKTTNQNVIKKQNKDLKFVFDAVFDETSTQSEVFEHTTKPILRSFLNGYNCTVLAYGATGAGKTHTMLGSADEPGVMYLTMLHLYKCMDEIKEEKICSTAVSYLEVYNEQIRDLLVNSGPLAVREDTQKGVVVHGLTLHQPKSSEEILHLLDNGNKNRTQHPTDMNATSSRSHAVFQIYLRQQDKTASINQNVRIAKMSLIDLAGSERASTSGAKGTRFVEGTNINRSLLALGNVINALADSKRKNQHIPYRNSKLTRLLKDSLGGNCQTIMIAAVSPSSVFYDDTYNTLKYANRAKDIKSSLKSNVLNVNNHITQYVKICNEQKAEILLLKEKLKAYEEQKAFTNENDQAKLMISNPQEKEIERFQEILNCLFQNREEIRQEYLKLEMLLKENELKSFYQQQCHKQIEMMCSEDKVEKATGKRDHRLAMLKTRRSYLEKRREEELKQFDENTNWLHRVEKEMGLLSQNGHIPKELKKDLHCHHLHLQNKDLKAQIRHMMDLACLQEQQHRQTEAVLNALLPTLRKQYCTLKEAGLSNAAFESDFKEIEHLVERKKVVVWADQTAEQPKQNDLPGISVLMTFPQLGPVQPIPCCSSSGGTNLVKIPTEKRTRRKLMPSPLKGQHTLKSPPSQSVQLNDSLSKELQPIVYTPEDCRKAFQNPSTVTLMKPSSFTTSFQAISSNINSDNCLKMLCEVAIPHNRRKECGQEDLDSTFTICEDIKSSKCKLPEQESLPNDNKDILQRLDPSSFSTKHSMPVPSMVPSYMAMTTAAKRKRKLTSSTSNSSLTADVNSGFAKRVRQDNSSEKHLQENKPTMEHKRNICKINPSMVRKFGRNISKGNLR [KIF18A]	-0.237	-0.624
MAESSSESDHFRCRDRLSPWAARSTHRGTRSLPTVEVTEKVNTITSTLQDTSRNLRQVDQMLGRYREYSNGQAGAIEHLKESLEQSIDQLRSQRLLRNSGGRSISVTSLSASDLDGGTGSELHHFPPTSPLKDYGDPQGIKRMRSRTGVRFVQETDDMTQLHGFHQSLRDLSSEQIRLGDDFNRELSRRSRSDAETKRALEELTEKLNEAQKQEVVSDRVERRLQELEREMRTERELVERRQDQLGLMSLQLQEALKKQEAKADEHEGAIKNKLRQTETEKNQLEQELELSRRLLNQSEGSRETLLHQVEELRTQLTKAEGDRKGLQHQVSQISKQQSNYQDEQGEDWRFRRGVEREKQDLEKQMSDLRVQLNFSAMASELEEVKRCMERKDKEKAHLASQVENLTRELENGEKQQLQMLDRLKEIQNHFDTCEAERKHADLQISELTRHAEDATKQAERYLSELQQSEALKEEAEKRREDLKLKAQESIRQWKLKHKKLERALEKQSETVDELTGKNNQILKEKDELKTQLYAALQQIENLRKELNDVLTKRALQEEELHSKEEKLRDIKSHQADLELEVKNSLDTIHRLESELKKQSKIQSQMKVEKAHLEEEIAELKKSQAQDKAKLLEMQESIKDLSAIRADLANKLAEEERAKKAVLKDLSDLTAQAKSRDEETATIITQLKLERDVHQRELKDLTSSLQSVKTKHEQNIQELMKHFKKEKSEAENHIRTLKAESLEEKNMAKIHRGQLEKLKSQCDRLTEELTQNENENKKLKLKYQCLKDQLEEREKHISIEEEHLRRMEEARLQLKDQLLCLETEQESILGVIGKEIDAACKTFSKDSVEKLKVFSSGPDIHYDPHRWLAESKTKLQWLCEELKERENREKNLRHQLMLCRQQLRNLTENKESELQCLFQQIERQEQLLDEIHREKRDLLEETQRKDEEMGSLQDRVIALETSTQVALDHLESVPEKLSLLEDFKDFRDSCSSSERTDGRYSKYRVRRNSLQHHQDDTKYRTKSFKGDRTFLEGSHTRGLDHSSSWQDHSRFLSSPRFSYVNSFTKRTVAPDSASNKEDATMNGTSSQPKKEEYGS [CEP128]	-0.182	0.351
MAAEEVLQTVDHYKTEIERLTKELTETTHEKIQAAEYGLVVLEEKLTLKQQYDELEAEYDSLKQELEQLKEAFGQSFSIHRKVAEDGETREETLLQESASKEAYYLGKILEMQNELKQSRAVVTNVQAENERLTAVVQDLKENNEMVELQRIRMKDEIREYKFREARLLQDYTELEEENITLQKLVSTLKQNQVEYEGLKHEIKRFEEETVLLNSQLEDAIRLKEIAEHQLEEALETLKNEREQKNNLRKELSQYISLNDNHISISVDGLKFAEDGSEPNNDDKMNGHIHGPLVKLNGDYRTPTLRKGESLNPVSDLFSELNISEIQKLKQQLMQVEREKAILLANLQESQTQLEHTKGALTEQHERVHRLTEHVNAMRGLQSSKELKAELDGEKGRDSGEEAHDYEVDINGLEILECKYRVAVTEVIDLKAEIKALKEKYNKSVENYTDEKAKYESKIQMYDEQVTSLEKTTKESGEKMAHMEKELQKMTSIANENHSTLNTAQDELVTFSEELAQLYHHVCLCNNETPNRVMLDYYRQSRVTRSGSLKGPDDPRGLLSPRLARRGVSSPVETRTSSEPVAKESTEASKEPSPTKTPTISPVITAPPSSPVLDTSDIRKEPMNIYNLNAIIRDQIKHLQKAVDRSLQLSRQRAAARELAPMIDKDKEALMEEILKLKSLLSTKREQIATLRAVLKANKQTAEVALANLKNKYENEKAMVTETMTKLRNELKALKEDAATFSSLRAMFATRCDEYVTQLDEMQRQLAAAEDEKKTLNTLLRMAIQQKLALTQRLEDLEFDHEQSRRSKGKLGKSKIGSPKVSGEASVTVPTIDTYLLHSQGPQTPNIRVSSGTQRKRQFSPSLCDQSRPRTSGASYLQNLLRVPPDPTSTESFLLKGPPSMSEFIQGHRLSKEKRLTVAPPDCQQPAASVPPQCSQLAGRQDCPTVSPDTALPEEQPHSSSQCAPLHCLSKPPHP [BICD1]	-0.259	0.652
